Measurements reported in IntAct's records for PubMed 28559451.

B1: UL16-binding protein 6 (Homo sapiens), Q5VY80 (parent)
chain: MAAAAIPALLLCLPLLFLLFGWSRARRDDPHSLCYDITVIPKFRPGPRWCAVQGQVDEKTFLHYDCGNKTVTPVSPLGKKLNVTMAWKAQNPVLREVVDILTEQLLDIQLENYTPKEPLTLQARMSCEQKAEGHSSGSWQFSIDGQTFLLFDSEKRMWTTVHPGARKMKEKWENDKDVAMSFHYISMGDCIGWLEDFLMGMDSTLEPSAGAPLAMSSGTTQLRATATTLILCCLLIILPCFILPGI

Variants of: B1
Conditions: with nkg2d_human KLRK1, P26718
nkg2d_human KLRK1, P26718, sequence (P26718 whole entry): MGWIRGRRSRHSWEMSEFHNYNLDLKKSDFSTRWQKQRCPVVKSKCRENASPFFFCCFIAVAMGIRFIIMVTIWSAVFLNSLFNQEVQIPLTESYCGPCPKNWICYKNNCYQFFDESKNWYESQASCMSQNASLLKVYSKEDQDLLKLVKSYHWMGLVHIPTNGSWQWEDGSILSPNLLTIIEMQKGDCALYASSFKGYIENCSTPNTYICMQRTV

effect of a mutation on the interaction | Variant
decreasing interaction strength | L106R
